These results are taken from PMC6430086.

The target of assay [1] is HIV-1 envelope glycoprotein gp120 (HIV-1) (UniProt P04578).
The target of assay [2] is HIV-1 envelope glycoprotein gp41 (HIV-1) (UniProt P04578).

Regarding “Canavalia brasiliensis lectin (from UniProt P55915 1-237) (natural protein)”, the EC50 to inhibit giant cell (syncytium) formation in SupT1 + HUT-78/HIV-1 co-cultures (fusion by gp120/gp41-CD4 interaction) in assay [1] and in assay [2] was 0.075 µM each time.

Consider “Canavalia maritima lectin (natural protein)”, for which the EC50 to inhibit giant cell (syncytium) formation in SupT1 + HUT-78/HIV-1 co-cultures (fusion by gp120/gp41-CD4 interaction) in assay [1] and in assay [2] was 0.075 µM in each case.

In the case of “Dioclea lasiocarpa lectin (natural protein)”, the EC50 to inhibit giant cell (syncytium) formation in SupT1 + HUT-78/HIV-1 co-cultures (fusion by gp120/gp41-CD4 interaction) in assay [1] and in assay [2] was 0.046 µM in each case.

For “Dioclea sclerocarpa lectin (natural protein)”, the EC50 to inhibit giant cell (syncytium) formation in SupT1 + HUT-78/HIV-1 co-cultures (fusion by gp120/gp41-CD4 interaction) in assay [1] and in assay [2] was 0.063 µM each time.
